Here are results for one molecule from patent JP2018150260A (dated 2018).

For this experiment, the target named is T1, myc3 タグ融合 PB1 サブユニット(1aa-81aa), expressed in 293T cells (influenza virus H1N1, UniProt P03431 1-81).
T1 construct: range 1-81
The experiment in a line: Western blot of 293T lysate (denatured protein).

T1 sequence (P03431 1-81): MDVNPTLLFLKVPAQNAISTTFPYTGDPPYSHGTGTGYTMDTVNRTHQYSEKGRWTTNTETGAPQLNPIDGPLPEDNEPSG

B1: PA 11-9.4モノクローナル抗体 (antibody, V domains shown)
VH: AEFVKPGASVKLSCIASGFNIKDTYMYWVKQRPEQGLEWIGRIDPANGNTKYDPKFQGKATITTDTSSNTAYLQVSSLTSEDTAVYYCAYRYDYYFDYWGQGTTLTVSS
VL: not shown
notes: also called PA 11-9.4 抗体
Turning to B1, the binding result is “no binding”.
